According to article PMC4428439, “Anti-adaptors use distinct modes of binding to inhibit the RssB-dependent turnover of RpoS (σ^S) by ClpXP” (Frontiers in Molecular Biosciences, 2015):

B1: His10-tagged IraD (natural protein, E. coli, UniProt P39375 1-130, looked up)
chain: MMRQSLQAVLPEISGNKTSSLRKSVCSDLLTLFNSPHSALPSLLVSGMPEWQVHNPSDKHLQSWYCRQLRSALLFHEPRIAALQVNLKEAYCHTLAISLEIMLYHDDEPLTFDLVWDNGGWRSATLENVS
notes: IraD, anti-adaptor induced by DNA damage, E. coli; source: E. coli, overexpressed, purified (essentially as Bougdour et al., 2008)
B2: IraP with a C-terminal His10-tag, purified (natural protein, E. coli, UniProt P0AAN9 1-86, looked up)
chain: MKNLIAELLFKLAQKEEESKELCAQVEALEIIVTAMLRNMAQNDQQRLIDQVEGALYEVKPDASIPDDDTELLRDYVKKLLKHPRQ
notes: IraP, anti-adaptor induced by phosphate starvation, E. coli; also called His10-tagged IraP; source: E. coli, overexpressed, purified (essentially as Bougdour et al., 2008); not shown: His10, C-terminal, kept
B3: RssB, full-length, untagged, purified (natural protein, E. coli, UniProt P0AEV1 1-337, looked up)
chain: MTQPLVGKQILIVEDEQVFRSLLDSWFSSLGATTVLAADGVDALELLGGFTPDLMICDIAMPRMNGLKLLEHIRNRGDQTPVLVISATENMADIAKALRLGVEDVLLKPVKDLNRLREMVFACLYPSMFNSRVEEEERLFRDWDAMVDNPAAAAKLLQELQPPVQQVISHCRVNYRQLVAADKPGLVLDIAALSENDLAFYCLDVTRAGHNGVLAALLLRALFNGLLQEQLAHQNQRLPELGALLKQVNHLLRQANLPGQFPLLVGYYHRELKNLILVSAGLNATLNTGEHQVQISNGVPLGTLGNAYLNQLSQRCDAWQCQIWGTGGRLRLMLSAE
notes: RssB (SprE), adaptor protein of ClpXP, E. coli; residues 1-337 by the printed domain limits; Monomeric and dimeric RssB were separated by preparative SEC; degradation assays used monomeric RssB; also called SprE; full-length RssB; source: E. coli, Ub-fusion system, purified (IMAC, preparative SEC)
B4: RssBN, N-terminal domain of RssB (residues 1-129), untagged, purified (domain or fragment, E. coli, UniProt P0AEV1 1-129, looked up)
chain: MTQPLVGKQILIVEDEQVFRSLLDSWFSSLGATTVLAADGVDALELLGGFTPDLMICDIAMPRMNGLKLLEHIRNRGDQTPVLVISATENMADIAKALRLGVEDVLLKPVKDLNRLREMVFACLYPSMF
notes: RssB, E. coli, N-terminal domain, residues 1-129; also called N-domain of RssB; receiver domain; source: E. coli, Ub-fusion system, purified (IMAC, SEC)

Assays:
[1] = molecular target: B3; test: pull-down; purified His10-tagged IraD immobilised on Ni-NTA agarose beads; purified untagged RssB, RssBN or RssBC added; washed, eluted with imidazole; SDS-PAGE, CBB; conditions: both partners purified
[2] = molecular target: the molecule itself; test: SEC; Superdex 75; 5 nmol of IraD, RssBN or the IraD-RssBN complex; chilled GF buffer (20 mM Tris-HCl pH 7.5, 10 mM MgCl2, 0.1 mM EDTA, 1 mM DTT, 140 mM NaCl, 5% glycerol, 0.005% Triton X-100); fractions on SDS-PAGE, CBB
[3] = molecular target: T1, RssBC, C-terminal domain of RssB (residues 131-337), untagged, purified (E. coli, UniProt P0AEV1 131-337); test: pull-down; purified IraP immobilised on Ni-NTA agarose beads via a C-terminal His10-tag; purified RssB, RssBN or RssBC added; washed, eluted with imidazole; immunoblotting; conditions: both partners purified
T1 construct: RssB, E. coli, C-terminal effector domain, residues 131-337; also called C-terminal effector domain of RssB; source: E. coli, Ub-fusion system, purified (IMAC, SEC)
T1 sequence (looked up): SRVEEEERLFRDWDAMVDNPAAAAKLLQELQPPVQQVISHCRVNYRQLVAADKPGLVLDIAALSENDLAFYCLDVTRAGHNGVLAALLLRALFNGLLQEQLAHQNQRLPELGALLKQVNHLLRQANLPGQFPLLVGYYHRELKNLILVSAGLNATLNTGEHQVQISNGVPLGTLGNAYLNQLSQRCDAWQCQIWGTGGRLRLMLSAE

[4] = molecular target: the molecule itself; test: SEC; preparative grade SEC in the purification of untagged RssB, separating monomeric and dimeric RssB

## B1
[1]
  binding result: binds
[2]
  stoichiometry N: 2

## B2
[3]
  binding result: binds

## B3
[4]
  stoichiometry N: 2

## B4
[2]
  stoichiometry N: 2
